This note sets out measurements from paper doi:10.1101/283192, “Disrupted structure and aberrant function of CHIP mediates the loss of motor and cognitive function in preclinical models of cerebellar CHIPopathy” (bioRxiv, 2018).

This series deals with the molecule itself. The experiment in a line: SEC-MALS; GE Superdex 200 column, Wyatt DAWN HELEOS-II and T-Rex refractometer; 100 µl of 0.5 mg/ml of each sample loaded.

B1: CHIP-T246M, His-tagged recombinant (natural protein, human, UniProt Q9UNE7 1-303, looked up)
chain: MKGKEEKEGGARLGAGGGSPEKSPSAQELKEQGNRLFVGRKYPEAAACYGRAITRNPLVAVYYTNRALCYLKMQQHEQALADCRRALELDGQSVKAHFFLGQCQLEMESYDEAIANLQRAYSLAKEQRLNFGDDIPSALRIAKKKRWNSIEERRIHQESELHSYLSRLIAAERERELEECQRNHEGDEDDSHVRAQQACIEAKHDKYMADMDELFSQVDEKRKKRDIPDYLCGKISFELMREPCIMPSGITYDRKDIEEHLQRVGHFDPVTRSPLTQEQLIPNLAMKEVIDAFISENGWVEDY
notes: CHIP (STUB1), human, full-length protein with the SCAR16 patient mutation T246M; T246M is a mutation found in patients (p.T246M); also called T246M CHIP; source: E. coli BL21(DE3), purified (HisTrap HP); copies: 10-12
Consider B1, for which the “stoichiometry N” value lay in the range of 10 to 12.

B2: CHIP-H260Q, His-tagged recombinant (natural protein, human, UniProt Q9UNE7 1-303, looked up)
chain: MKGKEEKEGGARLGAGGGSPEKSPSAQELKEQGNRLFVGRKYPEAAACYGRAITRNPLVAVYYTNRALCYLKMQQHEQALADCRRALELDGQSVKAHFFLGQCQLEMESYDEAIANLQRAYSLAKEQRLNFGDDIPSALRIAKKKRWNSIEERRIHQESELHSYLSRLIAAERERELEECQRNHEGDEDDSHVRAQQACIEAKHDKYMADMDELFSQVDEKRKKRDIPDYLCGKISFELMREPCITPSGITYDRKDIEEQLQRVGHFDPVTRSPLTQEQLIPNLAMKEVIDAFISENGWVEDY
notes: CHIP (STUB1), human, full-length protein with the synthetic mutation H260Q; source: E. coli BL21(DE3), purified (HisTrap HP)
For the protein B2, the binding result was “binds”.
